Reference: article PMC3688963, “Biochemical Characterization of Hypothetical Proteins from Helicobacter pylori” (PLoS ONE, 2013)

Test system: CC(=O)Oc1ccc([N+](=O)[O-])cc1
Assay: purified protein
Details: 100 mM sodium acetate pH 6.0, 30°C

HP0310 (Helicobacter pylori 26695)
Km: 180 ± 50 µM
Vmax: 37400 µM/min
kcat: 20.1 ± 0.917 s⁻¹
kcat/Km: 112000 M⁻¹ s⁻¹
